{"source": "patent US20170096493A1", "about": "(EISAI R AND D MANAGEMENT, published 2017)", "binders": {"B1": {"name": "Antibody B (antibody, human IgG2, kappa)", "heavy": "EVQLVESGGGLVQPGGSLRLSCAASGFTFSSYGMSWVRQAPGKGLELVATINSNGGRTYYPDSVKGRFTISRDNSKNTLYLQMGSLKAEDMAVYYCARDQGFAYWGQGTLVTVSSASTKGPSVFPLAPCSRSTSESTAALGCLVKDYFPEPVTVSWNSGALTSGVHTFPAVLQSSGLYSLSSVVTVPSSNFGTQTYTCNVDHKPSNTKVDKTVERKCCVECPPCPAPPAAAPSVFLFPPKPKDTLMISRTPEVTCVVVDVSHEDPEVQFNWYVDGVEVHNAKTKPREEQFNSTFRVVSVLTVVHQDWLNGKEYKCKVSNKGLPAPIEKTISKTKGQPREPQVYTLPPSREEMTKNQVSLTCLVKGFYPSDIAVEWESNGQPENNYKTTPPMLDSDGSFFLYSKLTVDKSRWQQGNVFSCSVMHEALHNHYTQKSLSLSPG", "light": "not shown", "notes": "Humanized IgG2 (V234A, G237A)/κ; also called HK3L3 (Lys-); HK3L3(Lys-)"}}, "key": {"[1]": {"target": "T1, Human Notch4-NRR domain Fc fusion protein (human, UniProt Q99466 1046-1445, limits assumed)", "T1 construct": "Expressed in a CHO cell line, used from culture supernatant; 1 is named; also called Human Notch4-NRR Fusion Protein; not shown: Fc", "T1 sequence": "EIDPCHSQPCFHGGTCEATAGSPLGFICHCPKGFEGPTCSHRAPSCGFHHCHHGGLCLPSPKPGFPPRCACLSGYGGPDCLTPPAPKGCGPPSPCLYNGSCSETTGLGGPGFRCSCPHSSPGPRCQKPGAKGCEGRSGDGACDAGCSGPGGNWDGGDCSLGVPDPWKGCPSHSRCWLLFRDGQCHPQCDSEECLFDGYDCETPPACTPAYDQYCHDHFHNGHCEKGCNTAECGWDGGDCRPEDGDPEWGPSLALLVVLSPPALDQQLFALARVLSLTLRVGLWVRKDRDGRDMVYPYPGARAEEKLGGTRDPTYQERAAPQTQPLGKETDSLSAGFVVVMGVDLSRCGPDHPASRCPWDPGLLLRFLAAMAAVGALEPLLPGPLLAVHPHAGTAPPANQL", "experiment": "SPR (Biacore) as for Table 30; Notch4-NRR-Fc captured, antibody injected; averaged, N=2", "experimental": "(§1) Kinetic analysis of further anti-Notch4 inhibitory humanized antibodies was carried out as follows. Human Notch4-NRR domain Fc fusion proteins were expressed with a CHO cell line. The antigen in the culture supernatant was captured by the anti-human Notch4 antibody fixed on a CM5 sensor chip that recognizes different epitopes of human Notch4. The humanized anti-human Notch4 antibody was then injected onto the sensor chip at various concentrations. The interaction and disassociation constants thereof were calculated according to manufacturer's instructions."}, "[2]": {"target": "T2, Human Notch4-NRR-SEAP-HA-His (human, UniProt Q99466 1046-1445)", "T2 construct": "also called human Notch4-NRR-SEAP-His; human Notch4 NRR domain; not shown: secretory alkaline phosphatase (SEAP); hemagglutinin (HA) tag; histidine tag (x10)", "T2 sequence": "T1 sequence", "experiment": "SPR (BIAcore T100); antibody captured by anti-human IgG Fc on CM5, NRR-SEAP-HA-His injected at 6 concentrations", "experimental": "Kinetics analysis using BIAcore T100 was performed for the interaction between the NRR domain of human Notch isotypes (Notch1, Notch2, Notch3, and Notch4) and Antibody B. Antibody B was purified from the culture supernatant of a stable expression CHO cell line of Antibody B with sequential use of protein A affinity chromatography, Capto Q anion exchange chromatography, and UNOsphere S cation exchange chromatography. Fusion proteins of Human Notch1 NRR domain (Genbank Accession No. 017617; sequence positions 1307-1733), human Notch2 NRR domain (Genbank Accession No. 024408; sequence positions 1239-1650), human Notch3 NRR domain (Genbank Accession No. 000435; sequence positions 1246-1641), and human Notch4 NRR domain (Genbank Accession No. NP_004548.3; sequence positions 1046-1445) with secretory alkaline phosphatase (SEAP), a hemagglutinin (HA) tag, and a histidine tag (×10) were created, and these were purified with HisTrap™ Fast Flow column (GE Healthcare). The interaction between Antibody B and the NRR domain of each human Notch isotypes was measured with the following method. The purified Antibody B was captured by anti-human IgG Fc antibody fixed on a CM5 sensor chip (GE Healthcare). The purified NRR domain of each human Notch isotypes was injected onto the sensor chip at 6 different concentrations, and the interaction and dissociation with the antibody were observed as per operation manual."}, "[3]": {"target": "T1, Human Notch4-NRR domain Fc fusion …", "experiment": "SPR (Biacore); Notch4-NRR-Fc captured by another anti-Notch4 antibody on CM5, antibody injected", "experimental": "as §1"}, "[4]": {"target": "T3, Notch4 with a part of the intracellular domain substituted with GAL4 DNA binding domain, on b.end3 reporter …", "experiment": "cell-based or functional assay"}, "[5]": {"target": "T4, Mouse Notch4-NRR domain fused with SEAP and 10× histidine tag (mouse, UniProt P31695 1042-1441)", "T4 construct": "domain: Notch4-NRR domain; not shown: secretory alkaline phosphatase (SEAP); 10x histidine tag", "T4 sequence (looked up)": "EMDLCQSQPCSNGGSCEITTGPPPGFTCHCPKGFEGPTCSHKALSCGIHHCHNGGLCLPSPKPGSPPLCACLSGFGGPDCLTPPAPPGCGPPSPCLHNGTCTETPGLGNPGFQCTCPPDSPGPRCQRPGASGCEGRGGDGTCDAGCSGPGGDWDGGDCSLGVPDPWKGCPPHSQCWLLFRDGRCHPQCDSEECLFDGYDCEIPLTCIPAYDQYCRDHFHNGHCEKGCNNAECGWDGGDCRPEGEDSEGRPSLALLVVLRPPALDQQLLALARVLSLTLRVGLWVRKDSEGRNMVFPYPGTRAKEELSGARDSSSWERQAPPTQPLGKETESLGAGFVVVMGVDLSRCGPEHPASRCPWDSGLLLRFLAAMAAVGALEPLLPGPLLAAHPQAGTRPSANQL", "experiment": "SPR (Biacore); antibody captured by anti-human IgG Fc on CM5, Notch4-NRR-SEAP-His injected", "experimental": "(§2) Kinetic analysis of the interaction of human, cynomolgus monkey, mouse, and rat Notch4-NRR domains with Antibody B was carried out with BIACORE. […] The genes for these proteins were transfected into Expi293F cells in Opti-MEM (INVITROGEN) using ExpiFectamine 293. These cells were cultured in Expi293 Expression Medium (INVITROGEN). Briefly, cells were diluted to 7.5×10⁷ cells/25.5 mL, and transfected by ExpiFectamine 293 reagent on Day 0. About 16 hours after transfection, 150 uL of ExpiFectamine 293 Transfection Enhancer 1 and 1.5 mL of ExpiFectamine 293 Transfection Enhancer 2 were added to each flask. The supernatant was collected on Day 4. These antigens were purified with Ni-NTA Superflow column (QIAGEN). The interaction was analyzed as below. The purified Antibody B was captured by anti-human IgG Fc antibody fixed on a CM5 sensor chip (GE healthcare). The purified Notch4-NRR fusion proteins were injected onto the sensor chip at 8 different concentrations, and the interaction and dissociation thereof were observed as per manufacturer's instructions."}, "[6]": {"target": "T5, Human Notch4-NRR domain fused with secretory alkaline phosphatase (SEAP) and 10× histidine tag (human, UniProt Q99466 1046-1445)", "T5 construct": "1 is named; not shown: secretory alkaline phosphatase (SEAP); 10x histidine tag", "T5 sequence": "T1 sequence", "experiment": "SPR (Biacore); antibody captured by anti-human IgG Fc on CM5, Notch4-NRR-SEAP-His injected", "experimental": "as §2"}, "[7]": {"target": "T6, Cynomolgus monkey Notch4-NRR domain fused with SEAP and 10× histidine tag (cynomolgus monkey, UniProt P05187 23-511 (human entry))", "T6 construct": "not shown: 10x histidine tag", "T6 sequence (P05187 23-511)": "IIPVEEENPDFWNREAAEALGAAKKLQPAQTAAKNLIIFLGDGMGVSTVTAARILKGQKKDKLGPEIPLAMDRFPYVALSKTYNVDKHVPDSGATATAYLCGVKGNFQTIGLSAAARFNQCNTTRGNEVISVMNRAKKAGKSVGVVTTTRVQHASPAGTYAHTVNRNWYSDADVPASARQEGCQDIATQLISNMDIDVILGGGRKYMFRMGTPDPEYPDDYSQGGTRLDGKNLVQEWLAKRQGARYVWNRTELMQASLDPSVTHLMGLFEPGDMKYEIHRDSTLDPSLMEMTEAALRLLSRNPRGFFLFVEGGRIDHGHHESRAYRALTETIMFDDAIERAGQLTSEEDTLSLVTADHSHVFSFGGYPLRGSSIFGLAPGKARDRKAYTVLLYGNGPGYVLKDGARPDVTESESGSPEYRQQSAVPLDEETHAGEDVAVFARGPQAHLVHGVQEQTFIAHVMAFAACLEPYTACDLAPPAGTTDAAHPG", "experiment": "SPR (Biacore); antibody captured by anti-human IgG Fc on CM5, Notch4-NRR-SEAP-His injected", "experimental": "as §2"}, "[8]": {"target": "T3, Notch4 with a part of the intracellular …", "experiment": "cell-based or functional assay", "remark": "listed apart in the source"}}}
{"binder": "B1", "values": [{"measurement": "Kd", "setting": "[1]", "result": 0.331, "unit": "nM"}, {"measurement": "koff", "setting": "[1]", "result": 0.000822, "unit": "s⁻¹"}, {"measurement": "kon", "setting": "[1]", "result": "2.48e+06", "unit": "M⁻¹ s⁻¹"}, {"measurement": "Kd", "setting": "[2]", "result": 30.5, "unit": "nM"}, {"measurement": "koff", "setting": "[2]", "result": 0.000831, "unit": "s⁻¹"}, {"measurement": "kon", "setting": "[2]", "result": 27200, "unit": "M⁻¹ s⁻¹"}, {"measurement": "Kd", "setting": "[3]", "result": 0.441, "unit": "nM"}, {"measurement": "koff", "setting": "[3]", "result": 0.00071, "unit": "s⁻¹"}, {"measurement": "kon", "setting": "[3]", "result": "1.66e+06", "unit": "M⁻¹ s⁻¹"}, {"measurement": "% of Control (relative luminescence), Notch4-GAL4 luciferase reporter assay, antibody at 10 µg/ml", "setting": "[4]", "result": "10.8 % of Control"}, {"measurement": "Kd", "setting": "[5]", "result": 11.2, "unit": "nM"}, {"measurement": "koff", "setting": "[5]", "result": 0.00727, "unit": "s⁻¹"}, {"measurement": "kon", "setting": "[5]", "result": 601000, "unit": "M⁻¹ s⁻¹"}, {"measurement": "Kd", "setting": "[6]", "result": 3.74, "unit": "nM"}, {"measurement": "koff", "setting": "[6]", "result": 0.00118, "unit": "s⁻¹"}, {"measurement": "kon", "setting": "[6]", "result": 317000, "unit": "M⁻¹ s⁻¹"}, {"measurement": "Kd", "setting": "[7]", "result": 3.62, "unit": "nM"}, {"measurement": "koff", "setting": "[7]", "result": 0.00106, "unit": "s⁻¹"}, {"measurement": "kon", "setting": "[7]", "result": 295000, "unit": "M⁻¹ s⁻¹"}, {"measurement": "IC50 of relative luminescence (%), Notch4-GAL4 luciferase reporter assay, reporter cells stimulated with solid phased DLL4", "setting": "[8]", "result": 0.011, "unit": "µg/mL"}]}
